Assay results published in US20230391832A1 (ISOLERE BIO, published 2023).
Positions count from the first letter of the chain named.

B1: SEQ ID NO 26 (designed binder)
chain: MATGVRAVPGNENSLEIEELARFAVDEHNKKENALLEFVRVVKAKEQVVAGTMYYLTLEAKDGGKKKLYEAKVWVKIRAIVYWSGNFKELQEFKPVGDA
notes: N-terminal Met printed as (M)
B2: SEQ ID NO 27 (designed binder)
chain: B1 chain with V42M, I77G, R78V, A79I, I80Y, V81A, W83S, S84Y, G85S
notes: N-terminal Met printed as (M)
B3: SEQ ID NO 28 (designed binder)
chain: B1 chain with I77A, R78G, A79Y, V81G, Y82R, W83S, S84K, G85A
notes: N-terminal Met printed as (M)
B4: SEQ ID NO 29 (designed binder)
chain: B1 chain with I77A, R78A, A79G, I80Y, V81Y, Y82V, W83Y, S84A, G85P
notes: N-terminal Met printed as (M)
B5: SEQ ID NO 31 (designed binder)
chain: B1 chain with R78S, A79R, I80P, V81G, Y82W, S84P, G85W
notes: N-terminal Met printed as (M)
B6: SEQ ID NO 32 (designed binder)
chain: B1 chain with I77S, A79S, I80V, V81R, Y82I, S84Y, G85S
notes: N-terminal Met printed as (M)
B7: SEQ ID NO 33 (designed binder)
chain: B1 chain with I77V, A79R, I80D, V81I, Y82V, W83V, S84P, G85R
notes: N-terminal Met printed as (M)
B8: SEQ ID NO 34 (designed binder)
chain: B1 chain with G51C, G63D, I77S, A79V, I80R, Y82I, W83R, S84W
notes: N-terminal Met printed as (M)
B9: SEQ ID NO 35 (designed binder)
chain: B1 chain with I77V, A79D, Y82S, W83I, S84R
notes: N-terminal Met printed as (M)
B10: SEQ ID NO 36 (designed binder)
chain: B1 chain with G10S, I77A, R78I, A79K, I80Y, Y82R, W83Y, S84K, G85A
notes: N-terminal Met printed as (M)
B11: SEQ ID NO 37 (designed binder)
chain: B1 chain with P9S, I77S, R78P, A79V, I80Y, V81W, Y82P, W83K, S84G
notes: N-terminal Met printed as (M)
B12: SEQ ID NO 38 (designed binder)
chain: B1 chain with I77S, R78A, A79S, I80Y, V81Y, Y82V, W83Y, G85Y
notes: N-terminal Met printed as (M)
B13: SEQ ID NO 39 (designed binder)
chain: B1 chain with I77W, I80V, V81R, Y82W, S84W
notes: N-terminal Met printed as (M)
B14: SEQ ID NO 40 (designed binder)
chain: B1 chain with I77V, R78V, A79G, I80K, V81W, Y82W, W83V, S84N, G85I
notes: N-terminal Met printed as (M)
B15: SEQ ID NO 41 (designed binder)
chain: B1 chain with I77A, A79Y, I80V, W83Y, S84R, G85W
notes: N-terminal Met printed as (M)
B16: SEQ ID NO 42 (designed binder)
chain: B1 chain with I77G, A79Y, I80S, S84Y, G85V
notes: N-terminal Met printed as (M)
B17: SEQ ID NO 43 (designed binder)
chain: B1 chain with I77V, A79Y, I80P, V81P, Y82N, W83I, S84W, G85K
notes: N-terminal Met printed as (M)
B18: SEQ ID NO 45 (designed binder)
chain: B1 chain with I77V, R78A, I80Y, V81P, Y82R, W83A, G85I
notes: N-terminal Met printed as (M)
B19: SEQ ID NO 46 (designed binder)
chain: B1 chain with R78G, A79I, I80P, V81I, Y82R, W83I, S84W, G85S
notes: N-terminal Met printed as (M)
B20: SEQ ID NO 47 (designed binder)
chain: B1 chain with I77V, R78N, A79I, I80Y, Y82I, W83S, S84P, G85R
notes: N-terminal Met printed as (M)
B21: SEQ ID NO 48 (designed binder)
chain: B1 chain with R40C, I77V, R78A, A79P, V81Y, Y82S, W83V, S84D, G85S
notes: N-terminal Met printed as (M)
B22: SEQ ID NO 49 (designed binder)
chain: B1 chain with I77S, R78V, V81R, Y82N, S84Y, G85W
notes: N-terminal Met printed as (M)
B23: SEQ ID NO 50 (designed binder)
chain: B1 chain with I77V, A79R, I80Y, V81S, Y82P, W83P, S84N, G85R
notes: N-terminal Met printed as (M)
B24: SEQ ID NO 51 (designed binder)
chain: B1 chain with I77V, A79Y, I80W, Y82D, W83R, S84R, G85K
notes: N-terminal Met printed as (M)
B25: SEQ ID NO 52 (designed binder)
chain: B1 chain with V8M, I77V, R78W, A79W, I80V, Y82S, W83D, S84P, G85A
notes: N-terminal Met printed as (M)
B26: SEQ ID NO 30 (designed binder)
chain: MATGVRAVSGNENGLEIEELARFAVDEHNKKENALLEFVRVVKAKEQVVAGTMYYLTLEAKDGGKKKLYEAKVWVKRIVRVAVWVNFRELQEFKPVGDA
notes: N-terminal Met printed as (M)
B27: SEQ ID NO 44 (designed binder)
chain: MATGVRAVPGNENSLEIEELARFAVDEHNKKENALLEFVRMVKAKEQYISVDKWVATMYYLTLEAKDGGKKKLYEAKVWVKYGGSCWRGGNFKELQEFKPVGDA
notes: N-terminal Met printed as (M)
B28: SEQ ID NO 53 (designed binder)
chain: MATGVRAVPGNENSLEIEELARFAVDEHNKKENALLEFVRVVKAKEQRARYYYVNRTMYYLTLEAKDGGKKKLYEAKVWVKWVIRGDSPANFKELQEFKLVGDA
notes: N-terminal Met printed as (M)

target: T1, AAV9 capsids (adeno-associated virus serotype 9, Assembled icosahedral capsid of about 60 subunits (VP1, VP2, VP3 from one gene). One VP1 chain is given. Example 1's screen does not say whether the capsids were full or empty.); test: ELISA, AAV9 capsids coated on plate, His-tagged variant in E. coli lysate, anti-His-HRP luminescence; signal relative to HSA (A) or to PKD2 control (B)
T1 construct: Assembled virus capsid

Row | Binder | fold specificity for AAV9 capsids [fold]
1 | MCDIPPFVCWWPSWCVWATWVCDGAPDCIDNYDEWICTPTP (designed binder, N-terminal Met printed as (M)) [SEQ ID NO 10] | > 3
2 | B1 | > 3
3 | B2 | > 3
4 | B3 | > 3
5 | B4 | > 3
6 | B5 | > 3
7 | B6 | > 3
8 | B7 | > 3
9 | B8 | > 3
10 | B9 | > 3
11 | B10 | > 3
12 | B11 | > 3
13 | B12 | > 3
14 | B13 | > 3
15 | B14 | > 3
16 | B15 | > 3

Row | Binder | fold specificity for AAV9 capsids [fold]
17 | B16 | > 3
18 | B17 | > 3
19 | B18 | > 3
20 | B19 | > 3
21 | B20 | > 3
22 | B21 | > 3
23 | B22 | > 3
24 | B23 | > 3
25 | B24 | > 3
26 | B25 | > 3
27 | MCWVKIFRCNIVGVCIVNTWVCDGRVDCSDPPDEGWCTPTP (designed binder, N-terminal Met printed as (M)) [SEQ ID NO 11] | > 3
28 | B26 | > 3
29 | MCAIDNFPCNWYIDCIGATWVCDGIIDCIDIADEYDCTPTP (designed binder, N-terminal Met printed as (M)) [SEQ ID NO 12] | > 3
30 | B27 | > 3
31 | B28 | > 3
